Source: the RNAGym collection of RNA variant scans (doi:10.1073/pnas.2313332121)
Fewer inactive variants are shown than the library holds.

B1: TPR 5TU (parent)
chain: GGAUCUUCUCGAUCUAACAAAAAAGACAAAUCUGCCACAAAGCUUGAGAGCAUCUUCGGAUGCAGAGGCGGCAGCCUUCGGUGGCGCGAUAGCGCCAACGUUCUCAACUAUGACACGCAAAACGCGUGCUCCGUUGAAUGGAGUUUAUCAUG

Variants of: B1
Test: polymerase ribozyme fitness, log enrichment relative to wild type (log ratio); higher = more active; in vitro selection for triplet polymerase activity
Method in brief: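 A heterodimeric triplet polymerase ribozyme had each of its subunits mutagenized by PCR into a library, which was transcribed. One round of in vitro selection, done in triplicate, annealed each library with a biotinylated primer, its partner subunit and triplets, then incubated it frozen at −7 °C before gel excision of extended constructs, streptavidin-bead capture and RT-PCR. Fitness is the logarithm of genotype enrichment relative to wild-type enrichment, based on Illumina sequencing of inputs and outputs and inverse-variance-weighted replicate averages. A base-2 logarithm is used, and genotypes were kept only with ≥10 input reads and ≥1 read per output.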

Variant	polymerase ribozyme fitness (log ratio)
C85G G94U	-0.835
C85U A91U C95G G140U	≤ -4.2
C85G G124A G133A	≤ -4.2
C85U G128A	-3.29
C85U A107U	-3.65
C85U G136U	-1.83
C85U G140A	-3.24
G86A A122G U148G	≤ -4.2
C85U U151G	-4.14
C85G G141C	-3.06
C85U A115G	-2.3
C85U A115U	-2.38
C85G U144G	-1.75
C85U C114G G128A	≤ -4.2
C85G C125A U130C	-1.52
C85G U90A C114A	≤ -4.2
C85U C116U	-0.233
C85U C116G	-0.942
C85U C105U	-0.279
C85U U148A	-3.08
C85U U148C	-2.19

Variant	polymerase ribozyme fitness (log ratio)
C85U A98C G124C	-1.37
C85U G86U C93U U130A A138U	≤ -4.2
C85U A89U G126U U145G	-3.94
C85U U101G C105A U109G A110G	-4.19
C85U C99G G136U	-2.88
G86A A150G	-3.09
G86A A150C	≤ -4.2
C85U U127A	-3.36
C85U U127C	-2.51
C85G G141A C149G	≤ -4.2
C85G C99G C116G G136U	≤ -4.2
C85G G126A U146A	-1.79
C85U C125G	-0.638
C85U C125U	-0.156
G86A A142C	-2.27
C85U G94A G152C	-3.09
C85U U104G	-0.929
C85U G128U C131U	-2.93
G86A A110U A138G	≤ -4.2
C85U A150C G152U	-3.38
C85G C96G	-3.49

Variant	polymerase ribozyme fitness (log ratio)
C85G C96U	-2.26
C85U G86C G88A U90G A121U G128A	≤ -4.2
C85U A115U G140A	-3.77
C85U C96U	-0.746
C85U C93G A150G	≤ -4.2
C85U U135G G141A	-3.54
G86A A110G U145A C149G	≤ -4.2
C85G G143U	-3.79
C85U A121C	-0.139
C85U U139C	-3.16
C85U U139G	-0.28
C85G A147U	-0.872
C85U U130G	-3.71
C85U G124U	-0.801
C85G C114U	-3.49
C85U C87G C95G C131A U134G A147U	≤ -4.2
C85U C99G G126A U135G	≤ -4.2
C85U G94C	-0.28
C85U U134C U144A C149A	-4.1
G86A C103G C123U	-3.36
C85U A98G	-0.688

Variant	polymerase ribozyme fitness (log ratio)
C85U G133U	-2.28
C85U G133C	-1.69
C85U G88A A98U	-3.79
C85U U145G	-2
C85U U145A	-0.468
C85U A122C	-1.06
G86A C118U G141C	-1.77
C85G U144A A150U	-3.7
C85U C95G C108U	≤ -4.2
C85G G94U C118G	-0.928
G86A A107U	-3.39
G86A A89U	-1.96
C85G C125A C131A C149U	≤ -4.2
C85G C93G	-3.68
G86A	-0.877
G86C	-2.55
C85U C125G G136A	-0.203
C85U G117U	0.675
C85U G117A	0.212
C85U C103U	-2.17
C85G G133U	≤ -4.2
